Laboratory results as given in the Immune Epitope Database (IEDB).

Tests used:
[1] = target: HLA-B*18:01; assay: IEDB peptide-MHC binding, purified MHC/competitive/radioactivity; filed as Kd, often an IC50 or EC50 that approximates it; ≥ and ≤ were set here for values at or beyond the usual limits of such assays
[2] = target: HLA-B*40:01; assay: as above
[3] = target: HLA-B*40:02; assay: as above
[4] = target: HLA-B*44:02; assay: as above
[5] = target: HLA-B*44:03; assay: as above
[6] = target: HLA-B*45:01; assay: as above
[7] = target: HLA-A*02:01; assay: IEDB peptide-MHC binding, purified MHC/competitive/fluorescence; ≥ and ≤ were set here for values at or beyond the usual limits of such assays
[8] = target: HLA-A*24:02; assay: as above
[9] = target: HLA-A*03:01; assay: IEDB peptide-MHC binding, purified MHC/competitive/fluorescence; filed as Kd, often an IC50 or EC50 that approximates it; ≥ and ≤ were set here for values at or beyond the usual limits of such assays
[10] = target: HLA-A*68:02; assay: IEDB peptide-MHC binding, purified MHC/competitive/radioactivity; filed as Kd, often an IC50 or EC50 that approximates it; ≥ and ≤ were set here for values at or beyond the usual limits of such assays; conditions: source organism: Dengue virus 4 Dominica/814669/1981
[11] = target: HLA-A*02:01; assay: IEDB peptide-MHC binding, purified MHC/direct/fluorescence; filed as Kd, often an IC50 or EC50 that approximates it; ≥ and ≤ were set here for values at or beyond the usual limits of such assays
[12] = target: HLA-A*02:12; assay: as above; conditions: source organism: Ravn virus - Ravn, Kenya, 1987
[13] = target: HLA-A*69:01; assay: as above
[14] = target: HLA-A*01:01; assay: as above; conditions: source organism: Giardia lamblia ATCC 50803
[15] = target: HLA-A*03:01; assay: as above; conditions: source organism: Giardia lamblia ATCC 50803
[16] = target: HLA-A*11:01; assay: as above; conditions: source organism: Giardia lamblia ATCC 50803
[17] = target: HLA-A*26:01; assay: as above; conditions: source organism: Giardia lamblia ATCC 50803
[18] = target: HLA-A*31:01; assay: as above; conditions: source organism: Giardia lamblia ATCC 50803
[19] = target: HLA-B*07:02; assay: as above; conditions: source organism: Giardia lamblia ATCC 50803
[20] = target: HLA-B*08:01; assay: as above; conditions: source organism: Giardia lamblia ATCC 50803
[21] = target: HLA-B*15:01; assay: as above; conditions: source organism: Giardia lamblia ATCC 50803
[22] = target: HLA-B*27:05; assay: as above; conditions: source organism: Giardia lamblia ATCC 50803
[23] = target: HLA-B*40:01; assay: as above; conditions: source organism: Giardia lamblia ATCC 50803
[24] = target: HLA-B*44:02; assay: as above; conditions: source organism: Giardia lamblia ATCC 50803
[25] = target: HLA-B*58:01; assay: as above; conditions: source organism: Giardia lamblia ATCC 50803
[26] = source organism: Lymphocytic choriomeningitis virus (strain Armstrong)
[27] = source organism: Mammarenavirus guanaritoense
[28] = source organism: SARS coronavirus Tor2
[29] = source organism: Mammarenavirus machupoense
[30] = source organism: Sudan ebolavirus
[31] = source organism: Ebola virus - Mayinga, Zaire, 1976
[32] = source organism: Mammarenavirus brazilense
[33] = source organism: Lymphocytic choriomeningitis virus (strain WE)
[34] = source organism: Giardia lamblia ATCC 50803
[35] = source organism: Zaire ebolavirus

**Q.** For ADNMITEML, which Kd [1, 26] is on record?
**A.** Its Kd is no less than 77.5 µM.

**Q.** And the Kd [2, 26]?
**A.** Its Kd is 19.5 µM.

**Q.** What about the Kd [3, 26] of the same sequence?
**A.** The Kd was 1410 nM.

**Q.** What about the Kd [4, 26] of the same sequence?
**A.** The Kd was 17.7 µM.

**Q.** What about the Kd [5, 26] of the same sequence?
**A.** The Kd was 17800 nM.

**Q.** And the Kd [6, 26]?
**A.** The Kd was no less than 77700 nM.

**Q.** What does the source list for AEFTFQLNL?
**A.** Kd [1, 27]: 5.93 µM; Kd [2, 27]: 0.0661 µM; Kd [3, 27]: 0.946 nM; Kd [4, 27]: 0.0599 µM; Kd [5, 27]: 50.8 nM; Kd [6, 27]: 210 nM

**Q.** With DEWSVATFYL as the sequence, how does the Kd [1, 28] read?
**A.** Its Kd is 0.0771 µM.

**Q.** What about the Kd [2, 28] of the same sequence?
**A.** Its Kd is 1.49 µM.

**Q.** What about the Kd [3, 28] of the same sequence?
**A.** Its Kd is 119 nM.

**Q.** And the Kd [4, 28]?
**A.** The Kd was 0.939 µM.

**Q.** What about the Kd [5, 28] of the same sequence?
**A.** Its Kd is 356 nM.

**Q.** And the Kd [6, 28]?
**A.** Its Kd is 1010 nM.

**Q.** DKLVDPINY was tested. Which Kd ([1]; source organism: Variola virus) did it give?
**A.** Its Kd is no less than 77.5 µM.

**Q.** What about the Kd ([2]; source organism: Variola virus) of the same sequence?
**A.** Its Kd is 15.5 µM.

**Q.** What about the Kd ([3]; source organism: Variola virus) of the same sequence?
**A.** Its Kd is no less than 77200 nM.

**Q.** What about the Kd ([4]; source organism: Variola virus) of the same sequence?
**A.** Its Kd is no less than 77.9 µM.

**Q.** And the Kd ([5]; source organism: Variola virus)?
**A.** Its Kd is no less than 78100 nM.

**Q.** And the Kd ([6]; source organism: Variola virus)?
**A.** Its Kd is no less than 77700 nM.

**Q.** With EEAARCMRSL as the sequence, how does the Kd [1, 28] read?
**A.** The Kd was 6.89 µM.

**Q.** What about the Kd [2, 28] of the same sequence?
**A.** The Kd was 0.802 µM.

**Q.** And the Kd [3, 28]?
**A.** Its Kd is 184 nM.

**Q.** And the Kd [4, 28]?
**A.** Its Kd is 0.164 µM.

**Q.** What about the Kd [5, 28] of the same sequence?
**A.** The Kd was 406 nM.

**Q.** And the Kd [6, 28]?
**A.** The Kd was 85 nM.

**Q.** EEILGTVSW was tested. Which Kd [1, 28] did it give?
**A.** The Kd was 0.0783 µM.

**Q.** And the Kd [2, 28]?
**A.** Its Kd is 3.08 µM.

**Q.** And the Kd [3, 28]?
**A.** The Kd was 378 nM.

**Q.** What about the Kd [4, 28] of the same sequence?
**A.** The Kd was 0.00319 µM.

**Q.** What about the Kd [5, 28] of the same sequence?
**A.** Its Kd is 2.58 nM.

**Q.** What about the Kd [6, 28] of the same sequence?
**A.** Its Kd is 1550 nM.

**Q.** Which Kd [1, 29] does the source give for EEVLDVCPLG here?
**A.** The Kd was 4.84 µM.

**Q.** What about the Kd [2, 29] of the same sequence?
**A.** Its Kd is 14.2 µM.

**Q.** What about the Kd [3, 29] of the same sequence?
**A.** The Kd was 9750 nM.

**Q.** And the Kd [4, 29]?
**A.** Its Kd is no less than 70.2 µM.

**Q.** And the Kd [5, 29]?
**A.** The Kd was no less than 51100 nM.

**Q.** What about the Kd [6, 29] of the same sequence?
**A.** The Kd was 4440 nM.

**Q.** With EGIYTEGLM as the sequence, how does the IC50 [7, 30] read?
**A.** Its IC50 is 33.4 µM.

**Q.** What about the IC50 [8, 30] of the same sequence?
**A.** The IC50 was 15 µM.

**Q.** Which Kd ([9]; source organism: Influenza A virus (A/Fort Monmouth/1/1947-mouse adapted(H1N1))) does the source give for ETMEVVQQTR here?
**A.** The Kd was no less than 20000 nM.

**Q.** GVSWMIRILI was tested. Which Kd [10] did it give?
**A.** Its Kd is 197 nM.

**Q.** For HEFVDEFYA, which Kd [1, 28] is on record?
**A.** Its Kd is 3.01 µM.

**Q.** What about the Kd [2, 28] of the same sequence?
**A.** Its Kd is 1.19 µM.

**Q.** And the Kd [3, 28]?
**A.** Its Kd is 55 nM.

**Q.** What about the Kd [4, 28] of the same sequence?
**A.** The Kd was 18.6 µM.

**Q.** What about the Kd [5, 28] of the same sequence?
**A.** The Kd was 5580 nM.

**Q.** What about the Kd [6, 28] of the same sequence?
**A.** Its Kd is 157 nM.

**Q.** How did the Kd [1, 28] turn out when IDYRHYSASF was run?
**A.** The Kd was no less than 31.5 µM.

**Q.** What about the Kd [2, 28] of the same sequence?
**A.** The Kd was no less than 44.6 µM.

**Q.** What about the Kd [3, 28] of the same sequence?
**A.** The Kd was 2670 nM.

**Q.** What about the Kd [4, 28] of the same sequence?
**A.** The Kd was 5.84 µM.

**Q.** And the Kd [5, 28]?
**A.** Its Kd is no less than 36500 nM.

**Q.** What about the Kd [6, 28] of the same sequence?
**A.** The Kd was 978 nM.

**Q.** Which results are given for IEYSDFATSA?
**A.** Kd [1, 28]: 0.135 µM; Kd [2, 28]: 16.7 µM; Kd [3, 28]: 147 nM; Kd [4, 28]: 0.728 µM; Kd [5, 28]: 658 nM; Kd [6, 28]: 154 nM

**Q.** For IISDLSIFI, which Kd [11, 31] is on record?
**A.** The Kd was 3 nM.

**Q.** And the Kd [12]?
**A.** Its Kd is 69 nM.

**Q.** And the Kd [13, 31]?
**A.** Its Kd is 32.3 nM.

**Q.** KEPGVSRELL was tested. Which Kd [1, 32] did it give?
**A.** Its Kd is no less than 70.4 µM.

**Q.** What about the Kd [2, 32] of the same sequence?
**A.** The Kd was 1.32 µM.

**Q.** What about the Kd [3, 32] of the same sequence?
**A.** The Kd was 1060 nM.

**Q.** And the Kd [4, 32]?
**A.** Its Kd is no less than 70.2 µM.

**Q.** What about the Kd [5, 32] of the same sequence?
**A.** The Kd was no less than 70100 nM.

**Q.** And the Kd [6, 32]?
**A.** The Kd was no less than 70000 nM.

**Q.** What does the source list for KEPVESCPLM?
**A.** Kd [1, 33]: ≥ 34.4 µM; Kd [2, 33]: 11.8 µM; Kd [3, 33]: 208 nM; Kd [4, 33]: 14.3 µM; Kd [5, 33]: ≥ 40800 nM; Kd [6, 33]: ≥ 70000 nM

**Q.** For KISGSFSPH, which Kd ([9]; source organism: Cryptosporidium parvum Iowa II) is on record?
**A.** Its Kd is 36.9 nM.

**Q.** What does the source list for KLADMSIYC?
**A.** Kd [14]: ≥ 20 µM; Kd [11, 34]: 42.7 nM; Kd [15]: 4.2 µM; Kd [16]: ≥ 20 µM; Kd [17]: ≥ 20 µM; Kd [18]: ≥ 20 µM; Kd [13, 34]: ≥ 20000 nM; Kd [19]: ≥ 20 µM; Kd [20]: ≥ 20 µM; Kd [21]: 4 µM; Kd [22]: ≥ 20 µM; Kd [23]: ≥ 20 µM; Kd [24]: ≥ 20 µM; Kd [25]: ≥ 20 µM

**Q.** KQLQQYAES was tested. Which IC50 [7, 35] did it give?
**A.** The IC50 was no less than 187 µM.

**Q.** And the IC50 [8, 35]?
**A.** Its IC50 is 20.8 µM.
